The values below come from article PMC2778355 (Biochemistry, 2009).

The target in series [1] is His-ZapA (E. coli) (UniProt P0ADS2). The experiment in a line: composition-gradient static light scattering.
The target is the same in series [2]. The experiment in a line: AUC.
Series [3] has as its target Escherichia coli FtsZ (E. coli) (UniProt P0A9A6). The experiment in a line: co-sedimentation.
A further series addresses ZapA (Escherichia coli) (UniProt P0ADS2). As to conditions: cited from earlier work.
Series [4] concerns the molecule itself. The experiment in a line: negative-stain electron microscopy.

One may read the stoichiometry N as a count of units in the complex or per binding partner. Consider “His-ZapA (from UniProt P0ADS2 1-109) (natural protein)”, for which the stoichiometry N in the series with His-ZapA (E. coli) [1] and with His-ZapA (E. coli) [2] was 4 each time.
As to “ZapA (His tag removed by enterokinase digestion of His-ZapA) (from UniProt P0ADS2 1-109) (natural protein)”, in series [3], the stoichiometry N came to 1.
As usually defined, the Kd is the concentration at which binding is half-saturated. Turning to ZapA (from UniProt P0ADS2), in the series with ZapA (Escherichia coli), the Kd was 320 nM.

B1: Escherichia coli FtsZ (natural protein)
chain: MFEPMELTNDAVIKVIGVGGGGGNAVEHMVRERIEGVEFFAVNTDAQALRKTAVGQTIQIGSGITKGLGAGANPEVGRNAADEDRDALRAALEGADMVFIAAGMGGGTGTGAAPVVAEVAKDLGILTVAVVTKPFNFEGKKRMAFAEQGITELSKHVDSLITIPNDKLLKVLGRGISLLDAFGAANDVLKGAVQGIAELITRPGLMNVDFADVRTVMSEMGYAMMGSGVASGEDRAEEAAEMAISSPLLEDIDLSGARGVLVNITAGFDLRLDEFETVGNTIRAFASDNATVVIGTSLDPDMNDELRVTVVATGIGMDKRPEITLVTNKQVQQPVMDRYQQHGMAPLTQEQKPVAKVVNDNAPQTAKEPDYLDIPAFLRKQAD
For the molecule B1, the binding result in series [4] is on record as “binds”.
